# B1: CPEB3 Ribozyme (parent)
# chain: GGGGGCCACAGCAGAAGCGUUCACGUCGCGGCCCCUGUCAGAUUCUGGUGAAUCUGCGAAUUCUGCUGU
# Variants of: B1
# Assay: self-cleavage, relative activity (ratio to wild type); higher = more cleavage; co-transcriptional
row,Variant,self-cleavage
1,GGGGCCCACAGCAGAAGCGUUCACGUCGCGGCCCCUGUCAGAUUCUGGUGAAUCUGCGAAUUCUGAUGU [G5C C66A],0.202
2,GGGGCCCACAGCAGAAGCGUUCACGUCGCGGCCCCUGUCAGAUUCUGGUGAAUCUGCGAAUUCUGGUGU [G5C C66G],0.186
3,GGGGCCCACAGCAGAAGCGUUCACGUCGCGGCCCCUGUCAGAUUCUGGUGAAUCUGCCAAUUCUGCUGU [G5C G58C],0.293
4,GGGGCCCACAGCAGAAGCGUUCACGUCGCGGCCCCUGUCAGAUUCUGGUGAAUCUGCAAAUUCUGCUGU [G5C G58A],0.198
5,GGGGCCCACAGCAGAAUCGUUCACGUCGCGGCCCCUGUCAGAUUCUGGUGAAUCUGCGAAUUCUGCUGU [G5C G17U],0.118
6,GGGGCCCACAGCAGAAGCGUUCACGUAGCGGCCCCUGUCAGAUUCUGGUGAAUCUGCGAAUUCUGCUGU [G5C C27A],0.109
7,GGGGCCCACAGCAGAAGCGUUCACGUGGCGGCCCCUGUCAGAUUCUGGUGAAUCUGCGAAUUCUGCUGU [G5C C27G],0.0907
8,GGGGCCCACAGCAGAAGCGUUCACGUCGCGGCCCCUGUCAGAUUCUGGUUAAUCUGCGAAUUCUGCUGU [G5C G50U],0.243
9,GGGGCCCACAGCAGAAGCGUUCACGUCGCGGCUCCUGUCAGAUUCUGGUGAAUCUGCGAAUUCUGCUGU [G5C C33U],0.468
10,GGGGCCCACAGCAGAAGCGUUCACGUCGGGGCCCCUGUCAGAUUCUGGUGAAUCUGCGAAUUCUGCUGU [G5C C29G],0.113
11,GGGGCCCACAGCAGAAGCGUUCACGUCGCGCCCCCUGUCAGAUUCUGGUGAAUCUGCGAAUUCUGCUGU [G5C G31C],0.0712
12,GGGGCCCACAGCAGAAGCGUUCACGUCGCGACCCCUGUCAGAUUCUGGUGAAUCUGCGAAUUCUGCUGU [G5C G31A],0.2
13,GGGGCCCACAGUAGAAGCGUUCACGUCGCGGCCCCUGUCAGAUUCUGGUGAAUCUGCGAAUUCUGCUGU [G5C C12U],0.256
14,GGGGCCCACAGCAGAAGCGUUCACGUCGCGGCCCCUGUCAGAUUCUGGUGAAUAUGCGAAUUCUGCUGU [G5C C54A],0.123
15,GGGGCCCACAGCAGAAGCGUUCACGUCGCGGCCCCUGUCAGAUUCUGCUGAAUCUGCGAAUUCUGCUGU [G5C G48C],0.245
16,GGGGCCCACAGCAGAAGCGUUCACGUCGCGGCCCCUGUCAGAUUCUGUUGAAUCUGCGAAUUCUGCUGU [G5C G48U],0.194
17,GGGGCCCACAGCAGAAGCGUUCACGUCGCGGCCCCUGUCAGAUUCUGGUGAAUCUGUGAAUUCUGCUGU [G5C C57U],0.0922
18,GGGGCCCACAGCAGAAGCGUUCACAUCGCGGCCCCUGUCAGAUUCUGGUGAAUCUGCGAAUUCUGCUGU [G5C G25A],0.0822
19,GGGGCCCACAGCAGAAGCGUUCACGUCGCGGUCCCUGUCAGAUUCUGGUGAAUCUGCGAAUUCUGCUGU [G5C C32U],0.703
20,GGGGCCCACAGCAGAAGCGUUCACGUCGCGGACCCUGUCAGAUUCUGGUGAAUCUGCGAAUUCUGCUGU [G5C C32A],0.805

row,Variant,self-cleavage
1,GGGGCCCACAGCAGAAGCGUUCACGUCGCGGCCCCUGACAGAUUCUGGUGAAUCUGCGAAUUCUGCUGU [G5C U38A],0.145
2,GGGGCCCACAGCAGAAGCGUUCACGUCGCGGCCCCUGCCAGAUUCUGGUGAAUCUGCGAAUUCUGCUGU [G5C U38C],0.12
3,GGGGCCCACAGCAGAAGCGUUAACGUCGCGGCCCCUGUCAGAUUCUGGUGAAUCUGCGAAUUCUGCUGU [G5C C22A],0.107
4,GGGGCCCACAGCAGAAGCCUUCACGUCGCGGCCCCUGUCAGAUUCUGGUGAAUCUGCGAAUUCUGCUGU [G5C G19C],0.0995
5,GGGGCCCACAGCAGAAGCGUUCACGUCACGGCCCCUGUCAGAUUCUGGUGAAUCUGCGAAUUCUGCUGU [G5C G28A],0.134
6,GGGGCCCACAACAGAAGCGUUCACGUCGCGGCCCCUGUCAGAUUCUGGUGAAUCUGCGAAUUCUGCUGU [G5C G11A],0.164
7,GGGGCCCACACCAGAAGCGUUCACGUCGCGGCCCCUGUCAGAUUCUGGUGAAUCUGCGAAUUCUGCUGU [G5C G11C],0.147
8,GGGGCCCACAGCAGAAGCGUUCACGCCGCGGCCCCUGUCAGAUUCUGGUGAAUCUGCGAAUUCUGCUGU [G5C U26C],0.109
9,GGGGCCCACAGCAGAAGCGUUCACGUCGCGGCCCUUGUCAGAUUCUGGUGAAUCUGCGAAUUCUGCUGU [G5C C35U],0.162
10,GGGGCCCACAGCAGAAGCGUUCACGUCGCGGCCCGUGUCAGAUUCUGGUGAAUCUGCGAAUUCUGCUGU [G5C C35G],0.121
11,GGGGCCCACAGCAGAAGCGUUCAAGUCGCGGCCCCUGUCAGAUUCUGGUGAAUCUGCGAAUUCUGCUGU [G5C C24A],0.112
12,GGGGCCCACAGCAGAAGCGUUCACGUCGCGGCCCCUGUCAGAAUCUGGUGAAUCUGCGAAUUCUGCUGU [G5C U43A],0.183
13,GGGGCCCACAGCAGAAGCGUUCACGUCGCGGCCCCUGUCAGAUUCUGGUGAAUCUUCGAAUUCUGCUGU [G5C G56U],0.131
14,GGGGCCCACAGCAGAAGCGUUCACGUCGCGGCCCCUGUCAGAUUCUGGUGAAUCUCCGAAUUCUGCUGU [G5C G56C],0.166
15,GGGGCCCACAGCAGAAGCGUUCACGUCGCGGCCCCUGUCAGAUUAUGGUGAAUCUGCGAAUUCUGCUGU [G5C C45A],0.283
16,GGGGCCCACAGCAGAAGCGCUCACGUCGCGGCCCCUGUCAGAUUCUGGUGAAUCUGCGAAUUCUGCUGU [G5C U20C],0.0972
17,GGGGCCCACAGCAGAAGCGAUCACGUCGCGGCCCCUGUCAGAUUCUGGUGAAUCUGCGAAUUCUGCUGU [G5C U20A],0.0824
18,GGGGCCCACAGCAAAAGCGUUCACGUCGCGGCCCCUGUCAGAUUCUGGUGAAUCUGCGAAUUCUGCUGU [G5C G14A],0.0874
19,GGGGCCCACAGCACAAGCGUUCACGUCGCGGCCCCUGUCAGAUUCUGGUGAAUCUGCGAAUUCUGCUGU [G5C G14C],0.146

# Source: the RNAGym collection of RNA variant scans (doi:10.7554/elife.80360)
